Data published in patent publication US20050261472A1, “Binding moieties for fibrin” (Dyax Corp., priority 1999, published 2005).
Blank lines part the entries; values can stand above or below the binder they belong to. Bridge positions count the residues as written; N and C are the ends. Ends that are not written are not given here.

Tests used:
[1] = target: DD(E) soluble fibrin-derived polypeptide (UniProt P02671); test: Kd against DD(E) target
dried fibrin [2] = target: T1, dried fibrin (UniProt P02671 36-629; P02675 45-491; P02679 27-437, limits assumed); test: dried fibrin plate, bound vs free peptide
T1 construct: Polymerised fibrin made in 96-well plates from fibrinogen and thrombin, dried at 37 C and rehydrated; also called (rehydrated) dried fibrin; fibrin target
T1 sequence (looked up) 1: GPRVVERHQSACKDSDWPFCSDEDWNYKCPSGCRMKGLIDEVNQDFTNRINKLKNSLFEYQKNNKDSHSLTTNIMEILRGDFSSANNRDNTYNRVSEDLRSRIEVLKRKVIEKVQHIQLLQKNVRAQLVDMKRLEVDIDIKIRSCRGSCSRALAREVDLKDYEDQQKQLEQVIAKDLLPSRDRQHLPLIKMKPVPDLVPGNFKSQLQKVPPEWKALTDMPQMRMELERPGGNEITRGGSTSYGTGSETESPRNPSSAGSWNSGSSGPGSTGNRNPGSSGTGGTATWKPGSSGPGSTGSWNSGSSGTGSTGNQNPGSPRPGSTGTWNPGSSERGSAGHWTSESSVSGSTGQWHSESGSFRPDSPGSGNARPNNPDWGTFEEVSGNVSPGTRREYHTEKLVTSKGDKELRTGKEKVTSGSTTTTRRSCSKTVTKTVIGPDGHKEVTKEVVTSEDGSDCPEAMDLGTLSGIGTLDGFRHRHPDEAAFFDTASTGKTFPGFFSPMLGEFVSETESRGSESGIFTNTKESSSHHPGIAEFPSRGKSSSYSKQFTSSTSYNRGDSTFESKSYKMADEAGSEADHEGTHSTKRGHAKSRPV
T1 sequence (looked up) 2: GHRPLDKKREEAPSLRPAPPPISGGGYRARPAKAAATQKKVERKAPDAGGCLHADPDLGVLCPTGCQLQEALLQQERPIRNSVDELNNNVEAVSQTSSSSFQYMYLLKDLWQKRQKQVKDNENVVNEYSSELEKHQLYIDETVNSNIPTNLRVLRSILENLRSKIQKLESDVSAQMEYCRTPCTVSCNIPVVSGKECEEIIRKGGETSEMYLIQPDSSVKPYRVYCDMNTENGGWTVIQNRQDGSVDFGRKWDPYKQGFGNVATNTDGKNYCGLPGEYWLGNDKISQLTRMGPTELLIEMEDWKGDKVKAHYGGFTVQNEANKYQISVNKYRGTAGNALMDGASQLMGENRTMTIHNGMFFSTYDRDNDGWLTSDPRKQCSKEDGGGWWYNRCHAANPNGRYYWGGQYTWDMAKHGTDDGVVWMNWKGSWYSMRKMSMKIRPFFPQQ
T1 sequence (looked up) 3: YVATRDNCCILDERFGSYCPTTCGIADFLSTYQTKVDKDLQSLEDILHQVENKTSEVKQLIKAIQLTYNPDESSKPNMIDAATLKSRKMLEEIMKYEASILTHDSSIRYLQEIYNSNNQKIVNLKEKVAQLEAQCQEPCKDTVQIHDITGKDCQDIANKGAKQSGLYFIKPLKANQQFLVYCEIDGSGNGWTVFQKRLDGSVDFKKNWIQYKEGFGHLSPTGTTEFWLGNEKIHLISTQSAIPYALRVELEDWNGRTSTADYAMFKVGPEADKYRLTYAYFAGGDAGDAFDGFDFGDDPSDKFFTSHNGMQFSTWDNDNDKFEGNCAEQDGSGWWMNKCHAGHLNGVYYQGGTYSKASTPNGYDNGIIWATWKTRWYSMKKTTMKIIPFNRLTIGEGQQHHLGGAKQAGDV

dried fibrin [3] = target: T1, dried fibrin; test: dried fibrin plate, free peptide by mass spectrometry, bound vs free fit
Description: (§1) A fibrinogen solution was prepared at 10 mg/ml (or at twice the concentration of fibrin desired) in TBS buffer (50 mM Tris, 150 mM NaCl, pH 7.4). The fibrinogen solution typically contained ˜17 mM citrate. Subsequently, a solution was prepared containing 2 U/ml thrombin, 20 mM CaCl₂, and 5 mM ε-aminocaproic acid in TBS. The fibrinogen solution and thrombin solution were mixed 1:1 in the wells of a 96-well plate, aliquoting 50 μL of each solution in each well (total volume=100 μL). The plates were evaporated to dryness overnight at 37° C. The polypeptide to be tested, dissolved in water, was added to each well at concentrations between 1-200 μM. […] The plate containing the peptide and (rehydrated) dried fibrin was covered and incubated at 37° C. on a shaker table for 2 hours.
(§2) The supernatant in each well was removed by pipette and the concentration of the polypeptide was measured by mass spectrometry. The ion current detected at the mass of the peptide was monitored after injection of a sample into the mass spectrometer. The area-under-the-peak was quantitated and compared to standards of known concentration. The concentration of peptide in the supernatant is equal to the concentration of free peptide. The concentration of bound peptide was determined by subtracting the concentration of free peptide from the total (starting) concentration. A plot of [Bound Peptide] vs. [Free Peptide] was used to determine the Kd and the concentration of bound peptide at saturation. The curve was fit to the equation: [Bound]=N×[Free]/(Kd+[Free]) where [Bound] is the concentration of bound polypeptide, [Free] is the concentration of free polypeptide, Kd is the dissociation constant (equal to the reciprocal of Kₐ) and N is the concentration of binding sites. The number of binding sites per fibrin molecule was equal to the lo concentration of binding sites determined by the [Bound Polypeptide] vs. [Free Polypeptide] plot, divided by the concentration of fibrin (15 μM) used in the assay.

dried fibrin [4] = target: T1, dried fibrin; test: dried fibrin plate, bound vs free peptide; remark: listed apart in the source
Description: as §1, §2

[5] = target: DD(E) soluble fibrin-derived polypeptide (UniProt P02671); test: synthetic peptide, Kd against DD(E) target

Binder: GQWECPYGLCWIQ (disulfide 5-10; not fully specified (N-terminus); also: Gd(III) chelate of DTPA) [Gd-DTPA-Gly[SEQ ID NO: 22]]
Kd [1]: 3.1 µM
Kd (dried fibrin [2]): 3.6 µM

B4: alanine scan peptide LACDYYGTCLD (peptide)
peptide: H-LACDYYGTCLD-NH2
modifications: disulfide 3-9
SMILES: CC(C)C[C@H](NC(=O)[C@@H]1CSSC[C@H](NC(=O)[C@H](C)NC(=O)[C@@H](N)CC(C)C)C(=O)N[C@@H](CC(=O)O)C(=O)N[C@@H](Cc2ccc(O)cc2)C(=O)N[C@@H](Cc2ccc(O)cc2)C(=O)NCC(=O)N[C@@H]([C@@H](C)O)C(=O)N1)C(=O)N[C@@H](CC(=O)O)C(N)=O
Kd (dried fibrin [4]): 31 µM

B5: alanine scan peptide LPCDYYGTCAD (peptide)
peptide: H-LPCDYYGTCAD-NH2
modifications: disulfide 3-9
SMILES: CC(C)C[C@H](N)C(=O)N1CCC[C@H]1C(=O)N[C@H]1CSSC[C@@H](C(=O)N[C@@H](C)C(=O)N[C@@H](CC(=O)O)C(N)=O)NC(=O)[C@H]([C@@H](C)O)NC(=O)CNC(=O)[C@H](Cc2ccc(O)cc2)NC(=O)[C@H](Cc2ccc(O)cc2)NC(=O)[C@H](CC(=O)O)NC1=O
Kd (dried fibrin [4]): 32 µM

B6: alanine scan peptide LPCDAYGTCLD (peptide)
peptide: H-LPCDAYGTCLD-NH2
modifications: disulfide 3-9
SMILES: CC(C)C[C@H](NC(=O)[C@@H]1CSSC[C@H](NC(=O)[C@@H]2CCCN2C(=O)[C@@H](N)CC(C)C)C(=O)N[C@@H](CC(=O)O)C(=O)N[C@@H](C)C(=O)N[C@@H](Cc2ccc(O)cc2)C(=O)NCC(=O)N[C@@H]([C@@H](C)O)C(=O)N1)C(=O)N[C@@H](CC(=O)O)C(N)=O
Kd (dried fibrin [4]): 16 µM

Binder: LPCDYYATCLD (C-terminal amide; N-terminus free) [alanine scan peptide LPCDYYATCLD]
Kd (dried fibrin [4]): 41 µM

Next, values leading:

Kd (dried fibrin [3]): 8.5 µM
B1: synthetic polypeptide RPCNYYGTCLH (peptide)
peptide: H-RPCNYYGTCLH-NH2
modifications: disulfide 3-9
SMILES: CC(C)C[C@H](NC(=O)[C@@H]1CSSC[C@H](NC(=O)[C@@H]2CCCN2C(=O)[C@@H](N)CCCNC(=N)N)C(=O)N[C@@H](CC(N)=O)C(=O)N[C@@H](Cc2ccc(O)cc2)C(=O)N[C@@H](Cc2ccc(O)cc2)C(=O)NCC(=O)N[C@@H]([C@@H](C)O)C(=O)N1)C(=O)N[C@@H](Cc1c[nH]cn1)C(N)=O
notes: Solid-phase synthesis; disulfide loop between the cysteines

Kd (dried fibrin [3]): 13 µM
B2: synthetic polypeptide LPCSYYGTCLH (peptide)
peptide: H-LPCSYYGTCLH-NH2
modifications: disulfide 3-9
SMILES: CC(C)C[C@H](NC(=O)[C@@H]1CSSC[C@H](NC(=O)[C@@H]2CCCN2C(=O)[C@@H](N)CC(C)C)C(=O)N[C@@H](CO)C(=O)N[C@@H](Cc2ccc(O)cc2)C(=O)N[C@@H](Cc2ccc(O)cc2)C(=O)NCC(=O)N[C@@H]([C@@H](C)O)C(=O)N1)C(=O)N[C@@H](Cc1c[nH]cn1)C(N)=O
notes: as for B1

Kd (dried fibrin [3]): 6.8 µM
B3: synthetic polypeptide RPCDYYGTCFD (peptide)
peptide: H-RPCDYYGTCFD-NH2
modifications: disulfide 3-9
SMILES: C[C@@H](O)[C@@H]1NC(=O)CNC(=O)[C@H](Cc2ccc(O)cc2)NC(=O)[C@H](Cc2ccc(O)cc2)NC(=O)[C@H](CC(=O)O)NC(=O)[C@@H](NC(=O)[C@@H]2CCCN2C(=O)[C@@H](N)CCCNC(=N)N)CSSC[C@@H](C(=O)N[C@@H](Cc2ccccc2)C(=O)N[C@@H](CC(=O)O)C(N)=O)NC1=O
notes: as for B1

Kd [1]: 2.96 µM
Kd [5]: 2.96 µM
Binder: QWECPYGLCWIQ (disulfide 4-9 (inferred))

Kd [1]: 2.63 µM
Kd [5]: 2.63 µM
Binder: WFHCPYDLCHIL (disulfide 4-9 (inferred))
